Experimental data published in paper doi:10.1101/2020.05.08.079574.
Ends that are not written are not given here.

Columns and labels:
[1] = target: HAdV-5 virion (E1/E3-deleted, replication-defective HAdV-5 vector with eGFP cassette) (human adenovirus 5 (HAdV-5)) (UniProt P04133); test: co-sedimentation
[2] = target: HAdV-64 virion (E3 deleted, replication-competent HAdV-64 virus with CMV-eGFP ORF, WT HAdV-64 capsid) (human adenovirus 64 (HAdV-64)); test: co-sedimentation

ATCYCRTGRCATRESLSGVCEISGRLYRLCCR (disulfide (positions not given here); also: oxidatively folded) [Human defensin 5]
stoichiometry N (molecules of HD5 per virion) [1]: 7090 | fold less HD5 bound per virion than to HAdV-5 at 20 µM HD5 [2]: 83 fold
